Results published in IntAct's records for PubMed 20126263.

B1: TP53-binding protein 1 (Mus musculus), P70399-1 (parent)
chain: MPGEQMDPTGSQLDSDFSQQDTPCLIIEDSQPESQVLEEDAGSHFSVLSRHLPNLQMHKENPVLDIVSNPEQSAVEQGDSNSSFNEHLKEKKASDPVESSHLGTSGSISQVIERLPQPNRTSSALAVTVEAASLPEEEKEEEELEEEKEGVGANAPGADSLAAEDSASSQLGFGVLELSQSQDVEEHTVPYDVNQEHLQLVTTNSGSSPLSDVDASTAIKCEEQPTEDIAMIEQPSKDIPVTVQPGKGIHVVEEQNLPLVRSEDRPSSPQVSVAAVETKEQVPARELLEEGPQVQPSSEPEVSSTQEDLFDQSSKTASDGCSTPSREEGGCSPVSTPATTLQLLQLSGQKPLVQESLSTNSSDLVAPSPDAFRSTPFIVPSSPTEQGGRKDEPMDMSVIPVGGEPFQKLHDDEAMETEKPLLPSQPAVSPQASTPVSRSTPVFTPGSLPIPSQPEFSHDIFIPSPSLEEPSDDVKKGGGLHSSSLTVECSKTSESEPKNFTDDLGLSMTGDSCKLMLSTSEYSQSSKMESLGSPRTEEDRENTQIDDTEPLSPVSNSKLPADSENVLVTPSQDDQVEMSQNVDKAKEDETEDRGDCKGREDAVAEDVCIDLTCDSGSQAVPSPATRSEALSSVLDQEEAMDTKEHHPEEGFSGSEVEEVPETPCGSHREEPKEEPMESIPLHLSLTETQSEALCLQKEAPKEECPEAMEVETSVISIDSPQKLQVLDQELEHKDPDTWEEATSEDSSVVIVDVKEPSPRADVSCEPLEEVEKCSDSQSWEGVAPEEEPCAENRLDTPEEKRIECDGDSKAETTEKDAVTEDSPQPPLPSVRDEPVRPDQETQQPQVQEKESPVTVDAEVADDKQLGPEGACQQLEKAPACASQSFCESSSETPFHFTLPKEGDIIPPLTGATPPLIGHLKLEPKRHSTPIGISNYPESTIATSDVTSESMVEINDPLLGNEKGDSESAPEMDGKLSLKMKLVSPETEASEESLQFSLEKPTTAERKNGSTAIAEPVASLQKPVPVFGCIYEAQQEKEAQSEAPPSAPDRANLLHFPSAQEEDKERPDVTPKLRQSEQPVKPVGPVMDDAAPEDSASPVSQQRASQEQRASQEPFSPAEDVMETDLLEGLAANQDRPSKMLMDRPTQSNIGIQTVDHSLCAPETVSAATQTVKSVCEQGTSTAEQNSGKQDATVQTERGSGEKPASAPVDDTESLHSQGEEEFEMPQPPHGHVLHRHMRTIREVRTLVTRVITDVYYVDGTEVERKVTEETEEPIVECQECETEVSPSQTGGSSGDLGDISSFSSKASSSHHTSSGTSLSAIHSSGSSGRGAGPLKGKASGTEAADFALPSSRGGPGKLSPRKGISQTGAPVCEEDGDAGLGIRQGGKAPVTPRGRGRRGRPPSRTTGTRETVVSGPLGVEDISPSMSPDDKSFTRIMPRVPDSTKRTDASSSTLRRSDSPEIPFQAATGSSDGLDSSSSGNSFVGLRVVAKWSSNGYFYSGKITRDVGAGKYKLLFDDGYECDVLGKDILLCDPIPLDTEVTALSEDEYFSAGVVKGHRKESGELYYSIEKEGQRKWYKRMAVILSLEQGNRLREQYGLGPYEAVTPLTKAADISLDNLVEGKRKRRSNISSPVTPTAASSSSTTPTRKATESPRASTGVPSGKRKLPTSEEERSPAKRGRKSATVKPGTVGAAEFVSPCETGDNIGEPSVLEEPRGPLPLNKTLFLGYAFLLTMATTSDKLASRSKLLDGPTGSSEEEEEFLEIPPFNKQYTECQLRAGAGYILEDFNEAQCNTAYQCLLIADQHCRTRKYFLCLASGIPCVSHVWVHDSCHANQLQNYRNYLLPAGYSLEEQRILDWQPRENPFQNLKVLLVSDQQQNFLELWSEILMTGGAASVKQHHSSAHNKDIALGVFDVVVTDPSCPASVLKCAEALQLPVVSQEWVIQCLIVGERIGFKQHPKYKHDYVSH

Variants of: B1
Conditions: with plk1_human PLK1, P53350
Sequence of plk1_human PLK1, P53350 (P53350 whole entry): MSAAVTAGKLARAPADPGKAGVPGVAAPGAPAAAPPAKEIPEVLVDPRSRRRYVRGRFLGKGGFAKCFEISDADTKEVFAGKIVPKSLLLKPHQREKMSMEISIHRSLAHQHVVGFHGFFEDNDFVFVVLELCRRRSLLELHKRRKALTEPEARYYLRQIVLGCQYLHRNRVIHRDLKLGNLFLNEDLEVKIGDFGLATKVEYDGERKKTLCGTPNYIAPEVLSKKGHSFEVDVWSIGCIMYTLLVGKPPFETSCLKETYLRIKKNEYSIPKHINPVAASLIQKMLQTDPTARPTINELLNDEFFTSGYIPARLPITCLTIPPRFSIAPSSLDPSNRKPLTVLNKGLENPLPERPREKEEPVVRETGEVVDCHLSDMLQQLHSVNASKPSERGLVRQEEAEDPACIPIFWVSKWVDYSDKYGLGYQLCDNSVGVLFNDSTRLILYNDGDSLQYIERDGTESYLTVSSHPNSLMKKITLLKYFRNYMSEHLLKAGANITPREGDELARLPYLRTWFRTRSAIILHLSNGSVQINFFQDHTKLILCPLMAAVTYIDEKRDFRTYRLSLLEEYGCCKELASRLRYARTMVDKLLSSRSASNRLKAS

| effect of a mutation on the interaction | Variant |
| --- | --- |
| disrupting interaction | S382A |
